This note sets out measurements from the supplement of paper PMC9170038.

Data set [1] has as its system MS2 coat protein. Description: apparent KD of MS2 coat protein, switch ON state; designed switch direction (-1 OFF switch, 1 ON switch): 1; higher = weaker reporter binding. Conditions: FMN input: 0 or 200 uM; Eterna round: R93 (includes R88 designs). The essentials:
(§1)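 Designed RNA switches were made by on-chip transcription from Illumina sequencing clusters and then titrated with SNAP-549-labelled MS2 coat protein. Twofold steps ran from 0.7 or 1.5 nM to 3 µM, each lasting 0.8–1.5 h early and 10–20 min late, in 100 mM Tris-HCl pH 7.5, 80 mM KCl, 4 mM MgCl2, without or with constant ligand. Apparent KD is the per-design median of normalised cluster binding-curve fits.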

Data set [2] deals with MS2 coat protein. Description: apparent KD of MS2 coat protein, switch OFF state (with FMN for OFF switches, without FMN for ON switches); designed switch direction (-1 OFF switch, 1 ON switch): 1; higher = weaker reporter binding. Conditions: FMN input: 0 or 200 uM; Eterna round: R93 (includes R88 designs). Put shortly:
as §1

Regarding “AAAAAACAUGAGGAUCACCCAUGUGAGAACAUGGGAGGAUAUACAAGGACGAGAGUCAAGGUAGAAGGCCUAAAGA [Mat - Same State 1 - Mod - D193]”, the “apparent KD of MS2 coat protein” value in the data set with MS2 coat protein [1] amounted to 545 nM; with MS2 coat protein [2], 21.1 nM.
As to “AAAAAACAUGAGGAUCACCCAUGUGAGAACAUGGGAGGAUAUACGAGGACGAGAGUCAGAGUAGAAGGCCUAAAAA [Garnet 66]”, the “apparent KD of MS2 coat protein” value with MS2 coat protein [1] worked out at 161 nM; in the data set on MS2 coat protein [2], 51.7 nM.
Regarding “AAAAAACAUGAGGAUCACCCAUGUGCAAAAUUCGCAGGAUAUUCCUCAAUUAAAUGAAAGGAAGAAGGGUGACAAA [Nob's Hobby 30 - Jieux - Same State 1]”, the “apparent KD of MS2 coat protein” value in the data set with MS2 coat protein [1] was 92.6 nM; in the data set with MS2 coat protein [2] it was 253 nM.
For “AAAAAACAUGAGGAUCACCCAUGUGCAAAAUUCGCAGGAUAUUCUUUUUUUAAAUGAGAGGGAGAAGGGUGUAAAA [Nob's Hobby 21 - Jieux - Same State 1]” the same measures were 25.5 nM and 22.4 nM.
Taken in the same sequence, the figures for “AAAAAACAUGAGGAUCACCCAUGUGCAAAAUUCGCAGGAUAUUUCUCAAUUAAAUGAGAGGAAGAAGGGUGACAAA [Nob's Hobby 28 - Jieux - Same State 1]” were 95.9 nM and 55.3 nM.
On to “AAAAACAUGGUGUAGGAUAUAUUAAUAGUCACAUGAGGAUCACCCAUGUUCAUAUAUAUGAACGAGUAGAAGGACGAUGAAAAAA [Mat - Same state - Malcolm Mod - D108]”, for which the results for the “apparent KD of MS2 coat protein” value with MS2 coat protein [1] and in the data set with MS2 coat protein [2] were 244 nM and 237 nM, respectively.
With “AAAAAGUGAUGGUAGGAUAUUGGAAAAGCCACAUGAGGAUCACCCAUGUCAAAAAACCUAAAAAACAAGAAGGGCUGUUAUAAAAA [Same State 2.2]”, the “apparent KD of MS2 coat protein” value turned out to be 18.6 nM with MS2 coat protein [1] and 24.7 nM with MS2 coat protein [2].
Taken in the same sequence, the figures for “AAAACACAUGAGGAUCACCCAUGUGCAAAAUUCGCAGGAUAUUUCUCAAUUAAAUGAAAGGAAGAAGGGUGAUAAA [Nob's Hobby 34 - Jieux - Same State 1]” were 19.4 nM and 29.4 nM.
For “AAAACCUGCGUCGAGGAUAUGUAGCCCACUACAUGAGGAUCACCCAUGUGGAUCUUACUGGGUCGACAGAAGGUGAAAGUUAGGC [Onlele]”, the results for the “apparent KD of MS2 coat protein” value with MS2 coat protein [1] and with MS2 coat protein [2] were 36.3 nM and 34.7 nM, respectively.
Taken in the same sequence, the figures for “AAAAGACAUGAGGAUCACCCAUGUAAAAACAUAGGAGGAUAUGUCAUGAAAAAAGACUUGACAGAAGGCCUUUGUC [SS1 - 49]” were 42 nM and 69.8 nM.
Taken in the same sequence, the figures for “AAAAGACAUGAGGAUCACCCAUGUCAAGACAUAGGAGGAUAUGUCUUGAAAAAAGACUUGACAGAAGGCCUUUGUC [SS1 - 58]” were 16.5 nM and 21.1 nM.
Turning to “AAAAGACAUGAGGAUCACCCAUGUCCUCGGACAUGAGGAUAUGUACAGACUUCGGUCUGUACAGAAGGCAUGUAAA [SS1 - 1070]”, the “apparent KD of MS2 coat protein” value in the data set on MS2 coat protein [1] is 47.3 nM; in the data set with MS2 coat protein [2] it was 232 nM.
Consider “AAAAGACAUGAGGAUCACCCAUGUGAAAACAUACAAGGAUAUGUGUGGAAACCGUACUAUACAGAAGGUGUAUGUC [SS1 - 85]”, for which the “apparent KD of MS2 coat protein” value in the data set with MS2 coat protein [1] was found to be 19.7 nM; with MS2 coat protein [2], 28.5 nM.
On to “AAAAGACAUGAGGAUCACCCAUGUGAAAACGUGCGAGGAUAUGUAUGGAAACCAUACUGUACAGAAGGCGCGUGUC [SS1 - 83]”, for which the results for the “apparent KD of MS2 coat protein” value in the data set with MS2 coat protein [1] and in the data set on MS2 coat protein [2] were 24.4 nM and 32.3 nM, respectively.
Taken in the same sequence, the figures for “AAAAGACAUGAGGAUCACCCAUGUUAAGACGUGGGAGGAUAUGCAUGGAAAACAUGCUGUGCAGAAGGCCCGUGUC [SS1 - 23]” were 19.8 nM and 78.6 nM.
Regarding “AAAAUAAAAAGGUAGGAUAUGGGUAAACCUACAUGAGGAUCACCCAUGUAAUAAAAAGAAAAAAACCAGAAGGACCAAAAUAAAA [72%, More Wateronthemoon, 9]”, the “apparent KD of MS2 coat protein” value with MS2 coat protein [1] came to 12.8 nM; in the data set on MS2 coat protein [2], 55.2 nM.
For the sequence “AAAAUAAAAUAAAAGGAUAUAAAAAUAUAUACAUGAGGAUCACCCAUGUAUAUAAAAAUAAAAUAAAAGAAGGAAUAAAAAUAAA [SS2 507: MS2 7]”, the “apparent KD of MS2 coat protein” value with MS2 coat protein [1] came to 22.7 nM; in the data set on MS2 coat protein [2], 18.9 nM.
Turning to “AAAAUACAUGAGGAUCACCCAUGUCCGACAAAUCAAGGAUAUGAUAGCCUAACCAGGCUGUUAGAAGGUGAAAGAA [Laarera]”, the “apparent KD of MS2 coat protein” value in the data set on MS2 coat protein [1] is 637 nM; in the data set with MS2 coat protein [2], 51.1 nM.
On to “AAACCACAUGAGGAUCACCCAUGUAAAAAAUAUGGAGGAUAUACUAGAAGAAACAAAAUAGUAGAAGGCCAAAAAA [75%, Ex sub1, 29]”, for which the “apparent KD of MS2 coat protein” value was found to be 20.3 nM with MS2 coat protein [1] and 24.6 nM in the data set with MS2 coat protein [2].
Turning to “AAACCACAUGAGGAUCACCCAUGUAAAAAUAUGGAAGGAUAUGCGAAAAGAAACAAAGAAGCAGAAGGUCUAAAAA [75%, Ex sub1, 20]”, the “apparent KD of MS2 coat protein” value is 15.2 nM in the data set with MS2 coat protein [1] and 27.7 nM with MS2 coat protein [2].
For “AAACCACAUGAGGAUCACCCAUGUAAAAAUAUGGGAGGAUAUACUAGAAGAAACAAAAUAGUAGAAGGCCUAAAAA [75%, Ex sub1, 28]”, the entries for the “apparent KD of MS2 coat protein” value with MS2 coat protein [1] and with MS2 coat protein [2] were 33.6 nM and 78.1 nM, respectively.
With “AAAGAAAAACUAGAGGAUAUCUGAAUGGUAACAUGAGGAUCACCCAUGUGAAGAAAGGAACAUGAGGAGAAGGCUAGAAGAAAAA [JL Nando mod 17]”, the “apparent KD of MS2 coat protein” value was 11.4 nM with MS2 coat protein [1] and 35.4 nM in the data set with MS2 coat protein [2].
Consider “AAAUAAAGGAUUAAGGAUAUAUCACAUGAAACAUGAGGAUCACCCAUGUAAUAAUAUAAAGGGUGAUAGAAGGUAGUUUAUAAAUA [High Roller2]”, for which the “apparent KD of MS2 coat protein” value worked out at 295 nM in the data set with MS2 coat protein [1] and 242 nM in the data set with MS2 coat protein [2].
As for “AAAUAAAUGACUAAGGAUAUAUCGAAGAAGACAUGAGGAUCACCCAUGUGAUAAUAAAAAGGGUGGUAGAAGGUAGUCAACAAAC [Mod 5 of Pariah 4 by Hyphema in Round 1]”, the “apparent KD of MS2 coat protein” value in the data set on MS2 coat protein [1] was 65.4 nM; in the data set on MS2 coat protein [2] it was 116 nM.
With “AAAUAAAUGACUAAGGAUAUCUCAGAGAAAACAUGAGGAUCACCCAUGUAAUAAUAACAUGAGUGAGAGAAGGUAGUCAACAAAC [Same State 2.3 (Pariah 4 -changed stack on 9nt hairpin)]”, the “apparent KD of MS2 coat protein” value came to 24.3 nM in the data set on MS2 coat protein [1] and 57.5 nM with MS2 coat protein [2].
Taken in the same sequence, the figures for “AAAUAACAUGAGGAUCACCCAUGUUGCAACGGUACAGGAUAUGUGGGUGAAAAUAGCAUGGCAGAAGGGUAGUGUA [SameState1 Malc#29]” were 130 nM and 67.8 nM.
As for “AACAAUCUAUCUGAGGAUAUAUGUCAAAAGACAUGAGGAUCACCCAUGUAAAAACAUGAAAAAUCAUAGAAGGCAGAUAGAUUGA [SS2: 1135]”, the “apparent KD of MS2 coat protein” value was determined as 67.3 nM in the data set on MS2 coat protein [1] and 88.3 nM with MS2 coat protein [2].
Regarding “AACAAUCUAUCUGAGGAUAUAUGUCAAAAGACAUGAGGAUCACCCAUGUAAAAACAUGAAAAGACAUAGAAGGCAGAUAGAUUGA [SS2: 1133]”, the “apparent KD of MS2 coat protein” value in the data set with MS2 coat protein [1] worked out at 25.4 nM; in the data set on MS2 coat protein [2] it was 35.1 nM.
“AACAAUCUAUCUGAGGAUAUCAUAAAAAAGACAUGAGGAUCACCCAUGUAGCAGGAAACUGCAUAUGAGAAGGCAGAUAGAUUGA [SS2: 1122]”: the “apparent KD of MS2 coat protein” value with MS2 coat protein [1] was found to be 29.6 nM; in the data set on MS2 coat protein [2], 18.1 nM.
In the case of “AACAAUCUAUCUGAGGAUAUCAUGUAAAAGACAUGAGGAUCACCCAUGUAGCAGGAAACUGCAUAUGAGAAGGCAGAUAGAUUGA [SS2: 1120]”, the “apparent KD of MS2 coat protein” value in the data set on MS2 coat protein [1] amounted to 18.4 nM; in the data set on MS2 coat protein [2] it was 21.3 nM.
For the sequence “AACAAUCUAUCUGAGGAUAUGUGUCAAAAGACAUGAGGAUCACCCAUGUAAAAACAUGGAAAAACACAGAAGGCAGAUAGAUUGA [SS2: 1149]”, the “apparent KD of MS2 coat protein” value in the data set with MS2 coat protein [1] is 62.1 nM; in the data set with MS2 coat protein [2] it was 75.4 nM.
On to “AACAAUCUAUCUGAGGAUAUGUGUCGAAAGACAUGAGGAUCACCCAUGUAAAAACAUGGGAAGAUACAGAAGGCAGAUAGAUUGA [SS2: 1161]”, for which the “apparent KD of MS2 coat protein” value came to 203 nM with MS2 coat protein [1] and 29.3 nM in the data set with MS2 coat protein [2].
For the sequence “AACAAUCUAUCUGAGGAUAUGUGUCGAAAGACAUGAGGAUCACCCAUGUGAAAACAUGAAAAGAUACAGAAGGCAGAUAGAUUGA [SS2: 1155]”, the “apparent KD of MS2 coat protein” value came to 26.6 nM in the data set with MS2 coat protein [1] and 35.9 nM in the data set with MS2 coat protein [2].
Turning to “AAGAAACAUGAGGAUCACCCAUGUAAACUCGAGAGAGGAUAUGGUACAUGGAAGAUCCAACUAGAAGGCUCUGGAG”, the “apparent KD of MS2 coat protein” value with MS2 coat protein [1] is 38.6 nM; in the data set with MS2 coat protein [2], 17.6 nM.
For the sequence “AAGAAACAUGAGGAUCACCCAUGUACCCAAAACGGAGGAUAUGGGAAAGAAAGAAAGAAACCAGAAGGCCGAUGAA [Amyrtaeus]”, the “apparent KD of MS2 coat protein” value came to 25.9 nM in the data set with MS2 coat protein [1] and 88.8 nM with MS2 coat protein [2].
For the sequence “AAGAAACAUGAGGAUCACCCAUGUACCCAAAAGGGAGGAUAUGGAAAAGAAAGAAAGAAACCAGAAGGCCCAUGAA [Artabanus the Hyrcanian]”, the “apparent KD of MS2 coat protein” value with MS2 coat protein [1] was 10.8 nM; with MS2 coat protein [2] it was 22.2 nM.
For “AAGAAACAUGAGGAUCACCCAUGUAGAAAUAUGGGAGGAUAUACGAAGACGAAAGUCAAAGUAGAAGGCCUAAAAG [Mat - Same State 1 - Eli mod - D107]”, the “apparent KD of MS2 coat protein” value in the data set with MS2 coat protein [1] came out at 21 nM; with MS2 coat protein [2], 68.7 nM.
On to “AAGAAACAUGAGGAUCACCCAUGUGAAAUAAACACAGGAUAUGCGAAAAGAAACAAAGAAGCAGAAGGGUGAAGAA [Mat - Same State 1 - Tesla mod - 57]”, for which the “apparent KD of MS2 coat protein” value in the data set with MS2 coat protein [1] worked out at 15.1 nM; in the data set with MS2 coat protein [2], 44.1 nM.
